Where no end group is shown, it is not given here. [ ]: non-standard residue; d: D form. pS = N[C@@H](COP(=O)(O)O)C(=O)O
Each binder was assayed against T1, HLA-A*02:01 (human) (assay: UV peptide-exchange ELISA).
T1 construct: MHC class I monomer of the UV-ligand exchange assay; also called peptide-receptive MHC molecules; MHC class I
Text: Candidate peptides for T cell based therapies according to the present invention were further tested for their MHC binding capacity (affinity). The individual peptide-MHC complexes were produced by UV-ligand exchange, where a UV-sensitive peptide is cleaved upon UV-irradiation, and exchanged with the peptide of interest as analyzed. Only peptide candidates that can effectively bind and stabilize the peptide-receptive MHC molecules prevent dissociation of the MHC complexes. To determine the yield of the exchange reaction, an ELISA was performed based on the detection of the light chain (β2m) of stabilized MHC complexes. The assay was performed as generally described in Rodenko et al. (Rodenko et al., 2006).
96 well MAXISorp plates (NUNC) were coated over night with 2 ug/ml streptavidin in PBS at room temperature, washed 4× and blocked forl h at 37° C. in 2% BSA containing blocking buffer. Refolded HLA-A*02:01/MLA-001 monomers served as standards, covering the range of 15-500 ng/ml. Peptide-MHC monomers of the UV-exchange reaction were diluted 100 fold in blocking buffer. Samples were incubated for 1 h at 37° C., washed four times, incubated with 2 ug/ml HRP conjugated anti-β2m for 1 h at 37° C., washed again and detected with TMB solution that is stopped with […]. Absorption was measured at 450 nm. Candidate peptides that show a high exchange yield (preferably higher than 50%, most preferred higher than 75%) are generally preferred for a generation and production of antibodies or fragments thereof, and/or T cell receptors or fragments thereof, as they show sufficient avidity to the MHC molecules and prevent dissociation of the MHC complexes.

peptide exchange yield [%] | Binder
50 to 75 | AIPPSFASIFL
50 to 75 | FVYGESVEL
20 to 50 | IQDRAVPSL
20 to 50 | KLGGTPAPA
50 to 75 | KLILLDTPLFL
20 to 50 | KLMNDIADI
50 to 75 | FMASHLDYL
50 to 75 | ILYNLYDLL
50 to 75 | VIYTLIHYI
50 to 75 | KLWEGLTELV
50 to 75 | LLFDHLEPMEL
50 to 75 | KLWNVAAPLYL
50 to 75 | ALFTF[pS]PLTV [ALFTFJPLTV]
50 to 75 | KTLDVDATYEI
50 to 75 | KVPAEEVLVAV
50 to 75 | LIPEGPPQV
50 to 75 | LLFDKLYLL
50 to 75 | LLIGATMQV
50 to 75 | LLILENILL
50 to 75 | RLLILENILL
50 to 75 | VLPAEFFEV
50 to 75 | AIDAALTSV
≥ 75 | RLYEITIEV

peptide exchange yield [%] | Binder
50 to 75 | ALGEDEITL
50 to 75 | LLIPVVPGV
20 to 50 | LLLAEAELLTL
50 to 75 | LLLEETEKQAV
50 to 75 | LLLEIGEVGKLFV
50 to 75 | LLPEGGITAI
50 to 75 | LLPTAPTTV
50 to 75 | LLSEEEYHL
10 to 20 | LLVLIPVYL
10 to 20 | LQALEVLKI
50 to 75 | LVYEAIIMV
50 to 75 | VVDGMPPGV
50 to 75 | YLLSGDISEA
≥ 75 | MLLEHGITLV
10 to 20 | MTAGFSTIAGSV
20 to 50 | NLDKLWTLV
50 to 75 | NLIKTVIKL
50 to 75 | NLLDIDAPVTV
50 to 75 | NLTDVVEKL
50 to 75 | QIAELPATSV
20 to 50 | QILSEIVEA
20 to 50 | QLDEPAPQV
50 to 75 | ALLRLLPGL

peptide exchange yield [%] | Binder
50 to 75 | QLLDTYFTL
50 to 75 | SALDTITTV
50 to 75 | SIIEGPIIKL
50 to 75 | SILETVATL
50 to 75 | SIVASLITV
50 to 75 | SLDNGGYYI
50 to 75 | SLFDQPLSII
50 to 75 | SLFDSAYGA
50 to 75 | SLIRILQTI
50 to 75 | SLLAELHVL
50 to 75 | ALPEVSVEA
≥ 75 | SLLAELHVLTV
50 to 75 | SLMLEVPAL
50 to 75 | SLNIGDVQL
50 to 75 | SLNIRDFTM
50 to 75 | SLPEAPLDV
50 to 75 | SLQEEKLIYV
50 to 75 | SLSFLVPSL
50 to 75 | SMDDGMINV
20 to 50 | SMKDDLENV
50 to 75 | SQLDISEPYKV

Reference: patent US20170165337A1 (IMMATICS BIOTECHNOLOGIES, published 2017)
